Results on 25 sequences are retold here after the supplement of paper PMC10201428.

The subject of series [1] is VchCAST RNA-guided transposition machinery (E. coli BL21(DE3) host, lacZ target). The series is described as follows: relative integration efficiency (T-RL orientation) vs wild-type transposon end (log2 (normalized fold change)); transposon end mutated: right end (5 bp flank + 75 bp right end); higher = more efficient transposition. The gist of the method: (§1)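 Barcoded pools of 1549 left-end or 1849 right-end transposon variants were cloned into a pUC57 mini-transposon donor. Each pool was co-transformed with a T7-driven effector plasmid (CRISPR array, tniQ-cas8-cas7-cas6, tnsA-tnsB-tnsC) into E. coli BL21(DE3) and plated with 0.1 mM IPTG at 37°C for 18 h. Input plasmids and genomic integration junctions were PCR-amplified and Illumina-sequenced, with two biological output replicates and four wild-type barcodes as reference. Relative integration efficiency is output/input barcode abundance fold change, normalised to wild-type barcodes and log-transformed.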

Series [2] shares this test system. The series is described as follows: relative integration efficiency (T-LR orientation) vs wild-type transposon end (log2 (normalized fold change)); transposon end mutated: right end (5 bp flank + 75 bp right end); higher = more efficient transposition. In a few lines: as §1

± gives the standard deviation of the averaged measurements.

Take “ACATTTGTGGATCCAACCATAAAATGATAATTACACCCATAAATGGATCATTATCACACCCAATTTAACTATAACGCTCTGATCATAGTCAGACCAACATTGCTACGACCCGTATTCGCACCGACAC”: the “relative integration efficiency (log2)” value in series [1] was -1.79 ± 0.39; in series [2] it was 0.845 ± 0.06.

Regarding “ACATTTGTGGATCCAACCATAAAATGATAATTACACCCATAAATTCATAATTATCACACCCAATTTAACTATAACGCTCTGATCATAGTCAGACCAACATTGCTACGACCCGTATTCGCACCGACAC”, the results for the “relative integration efficiency (log2)” value in series [1] and in series [2] were -2.04 ± 0.41 and 1.043 ± 0.0096, respectively.

“ACATTTGTGGATCCAACCATAAAATGATAATTACACCCATAAATTCATCATTATCACACCCAATTTAACTATAACGCTCTGATCATAGTCAGACCAACATTGCTACGACCCGTATTCGCACCGACAC”: the “relative integration efficiency (log2)” value was -2.28 ± 0.22 in series [1] and 1.15 ± 0.38 in series [2].

“ACATTTGTGGATCCAACCATAAAATGATAATTACACCCATAAATTGATAATTATCACACCCAATTTAACTATAACGCTCTGATCATAGTCAGACCAACATTGCTACGACCCGTATTCGCACCGACAC”: the entries for the “relative integration efficiency (log2)” value in series [1] and in series [2] were -0.789 ± 0.2 and 2.06 ± 0.17, respectively.

As for “ACATTTGTGGATCCAACCATAAAATGATAATTACACCCATAAATTGATCATTATCACACCCAATTTAACTATAACGCTCTGATCATAGTCAGACCAACATTGCTACGACCCGTATTCGCACCGACAC”, the “relative integration efficiency (log2)” value in series [1] was -1.6 ± 0.2; in series [2], 1.72 ± 0.11.

With “ACATTTGTGTATACAACCATAAAATGATAATTACACCCATAAATTGATAATTATCACACCCATAAATTGATATTGCCTCTGATCATAGTCAGACCAACATTGCTACGACCCGTATTCGCACCGACAC”, the entries for the “relative integration efficiency (log2)” value in series [1] and in series [2] were 0.00813 ± 0.2 and -0.811 ± 0.61, respectively.

Turning to “ACATTTGTGTCGACAACCATAAAATGATAATTACACCCATAAATTGATAATTATCACACCCATAAATTGATATTGCCTCTGATCATAGTCAGACCAACATTGCTACGACCCGTATTCGCACCGACAC”, the “relative integration efficiency (log2)” value is -0.916 ± 0.027 in series [1] and -2.89 ± 0.57 in series [2].

Turning to “ACATTTGTTAAAAAAACCATACGTTGATTTTACGAAACCATACGCTGAAATAATCACACCCATAAATTGATATTGCCTCTGATCATAGTCAGACCAACATTGCTACGACCCGTATTCGCACCGACAC”, the “relative integration efficiency (log2)” value was -5.94 ± 0.086 in series [1] and -5.9 ± 0.37 in series [2].

Consider “ACATTTGTTCATACAACCATAAAACGATAATTACACCCATAAATGGATAATTATCACACCCAATTTAACTATAACGCTCTGATCATAGTCAGACCAACATTGCTACGACCCGTATTCGCACCGACAC”, for which the “relative integration efficiency (log2)” value in series [1] was -2.14 ± 0.3; in series [2], -0.438 ± 0.41.

On to “ACATTTGTTCATACAACCATAAAACGATAATTACACCCATAAATGGATCATTATCACACCCAATTTAACTATAACGCTCTGATCATAGTCAGACCAACATTGCTACGACCCGTATTCGCACCGACAC”, for which the “relative integration efficiency (log2)” value in series [1] was -2.16 ± 0.3; in series [2], -0.511 ± 0.011.

As to “ACATTTGTTCATACAACCATAAAACGATAATTACACCCATAAATTCATAATTATCACACCCAATTTAACTATAACGCTCTGATCATAGTCAGACCAACATTGCTACGACCCGTATTCGCACCGACAC”, the “relative integration efficiency (log2)” value was -3 ± 0.52 in series [1] and -0.844 ± 0.015 in series [2].

For the sequence “ACATTTGTTCATACAACCATAAAACGATAATTACACCCATAAATTCATCATTATCACACCCAATTTAACTATAACGCTCTGATCATAGTCAGACCAACATTGCTACGACCCGTATTCGCACCGACAC”, the entries for the “relative integration efficiency (log2)” value in series [1] and in series [2] were -2.49 ± 0.11 and -0.684 ± 0.17, respectively.

Take “ACATTTGTTCATACAACCATAAAACGATAATTACACCCATAAATTGATAATTATCACACCCAATTTAACTATAACGCTCTGATCATAGTCAGACCAACATTGCTACGACCCGTATTCGCACCGACAC”: the “relative integration efficiency (log2)” value was -0.611 ± 0.28 in series [1] and 1.42 ± 0.13 in series [2].

Consider “ACATTTGTTCATACAACCATAAAACGATAATTACACCCATAAATTGATCATTATCACACCCAATTTAACTATAACGCTCTGATCATAGTCAGACCAACATTGCTACGACCCGTATTCGCACCGACAC”, for which the entries for the “relative integration efficiency (log2)” value in series [1] and in series [2] were -2.19 ± 0.3 and -0.162 ± 0.59, respectively.

For “ACATTTGTTCATACAACCATAAAATGATAATTACACCCATAAATGGATAATTATCACACCCAATTTAACTATAACGCTCTGATCATAGTCAGACCAACATTGCTACGACCCGTATTCGCACCGACAC”, the figures for the “relative integration efficiency (log2)” value in series [1] and in series [2] were -1.57 ± 0.27 and -0.42 ± 0.41, respectively.

With “ACATTTGTTCATACAACCATAAAATGATAATTACACCCATAAATGGATAATTATCACCCCCAATTTAACTATAACGCTCTGATCATAGTCAGACCAACATTGCTACGACCCGTATTCGCACCGACAC”, the “relative integration efficiency (log2)” value in series [1] was -1 ± 0.35; in series [2], 0.23 ± 0.071.

For the sequence “ACATTTGTTCATACAACCATAAAATGATAATTACACCCATAAATGGATCATTATCACACCCAATTTAACTATAACGCTCTGATCATAGTCAGACCAACATTGCTACGACCCGTATTCGCACCGACAC”, the results for the “relative integration efficiency (log2)” value in series [1] and in series [2] were -1.79 ± 0.18 and -0.503 ± 0.054, respectively.

For “ACATTTGTTCATACAACCATAAAATGATAATTACACCCATAAATGGATCATTATCACCCCCAATTTAACTATAACGCTCTGATCATAGTCAGACCAACATTGCTACGACCCGTATTCGCACCGACAC”, the “relative integration efficiency (log2)” value in series [1] was -1.84 ± 0.28; in series [2] it was -0.469 ± 0.18.

Turning to “ACATTTGTTCATACAACCATAAAATGATAATTACACCCATAAATTCATAATTATCACACCCAATTTAACTATAACGCTCTGATCATAGTCAGACCAACATTGCTACGACCCGTATTCGCACCGACAC”, the “relative integration efficiency (log2)” value was -2.52 ± 0.32 in series [1] and -0.697 ± 0.075 in series [2].

As for “ACATTTGTTCATACAACCATAAAATGATAATTACACCCATAAATTCATAATTATCACCCCCAATTTAACTATAACGCTCTGATCATAGTCAGACCAACATTGCTACGACCCGTATTCGCACCGACAC”, the “relative integration efficiency (log2)” value in series [1] was -1.62 ± 0.43; in series [2], -0.0689 ± 0.64.

With “ACATTTGTTCATACAACCATAAAATGATAATTACACCCATAAATTCATCATTATCACACCCAATTTAACTATAACGCTCTGATCATAGTCAGACCAACATTGCTACGACCCGTATTCGCACCGACAC”, the entries for the “relative integration efficiency (log2)” value in series [1] and in series [2] were -2.35 ± 0.22 and -0.334 ± 0.16, respectively.

On to “ACATTTGTTCATACAACCATAAAATGATAATTACACCCATAAATTCATCATTATCACCCCCAATTTAACTATAACGCTCTGATCATAGTCAGACCAACATTGCTACGACCCGTATTCGCACCGACAC”, for which the results for the “relative integration efficiency (log2)” value in series [1] and in series [2] were -1.97 ± 0.36 and 0.174 ± 0.27, respectively.

Turning to “ACATTTGTTCATACAACCATAAAATGATAATTACACCCATAAATTGATAATTATCACCCCCAATTTAACTATAACGCTCTGATCATAGTCAGACCAACATTGCTACGACCCGTATTCGCACCGACAC”, the results for the “relative integration efficiency (log2)” value in series [1] and in series [2] were -0.912 ± 0.46 and 0.97 ± 0.12, respectively.

On to “ACATTTGTTCATACAACCATAAAATGATAATTACACCCATAAATTGATCATTATCACACCCAATTTAACTATAACGCTCTGATCATAGTCAGACCAACATTGCTACGACCCGTATTCGCACCGACAC”, for which the figures for the “relative integration efficiency (log2)” value in series [1] and in series [2] were -1.45 ± 0.36 and 0.604 ± 0.17, respectively.

As to “ACATTTGTTCATACAACCATAAAATGATAATTACACCCATAAATTGATCATTATCACCCCCAATTTAACTATAACGCTCTGATCATAGTCAGACCAACATTGCTACGACCCGTATTCGCACCGACAC”, the “relative integration efficiency (log2)” value was -1.59 ± 0.39 in series [1] and 0.514 ± 0.2 in series [2].
